# Experimental data: patent publication US20240391961A1
# B1: serrate RNA effector molecule homolog [OS = Homo sapiens] (protein, UniProt Q9BXP5 2-876, looked up)
# chain: GDSDDEYDRRRRDKFRRERSDYDRSRERDERRRGDDWNDREWDRGRERRSRGEYRDYDRNRRERFSPPRHELSPPQKRMRRDWDEHSSDPYHSGYEMPYAGGGGGPTYGPPQPWGHPDVHIMQHHVLPIQARLGSIAEIDLGVPPPVMKTFKEFLLSLDDSVDETEAVKRYNDYKLDFRRQQMQDFFLAHKDEEWFRSKYHPDEVGKRRQEARGALQNRLRVFLSLMETGWFDNLLLDIDKADAIVKMLDAAVIKMEGGTENDLRILEQEEEEEQAGKPGEPSKKEEGRAGAGLGDGERKTNDKDEKKEDGKQAENDSSNDDKTKKSEGDGDKEEKKEDSEKEAKKSSKKRNRKHSGDDSFDEGSVSESESESESGQAEEEKEEAEEALKEKEKPKEEEWEKPKDAAGLECKPRPLHKTCSLFMRNIAPNISRAEIISLCKRYPGFMRVALSEPQPERRFFRRGWVTFDRSVNIKEICWNLQNIRLRECELSPGVNRDLTRRVRNINGITQHKQIVRNDIKLAAKLIHTLDDRTQLWASEPGTPPLPTSLPSQNPILKNITDYLIEEVSAEEEELLGSSGGAPPEEPPKEGNPAEINVERDEKLIKVLDKLLLYLRIVHSLDYYNTCEYPNEDEMPNRCGIIHVRGPMPPNRISHGEVLEWQKTFEEKLTPLLSVRESLSEEEAQKMGRKDPEQEVEKFVTSNTQELGKDKWLCPLSGKKFKGPEFVRKHIFNKHAEKIEEVKKEVAFFNNFLTDAKRPALPEIKPAQPPGPAQILPPGLTPGLPYPHQTPQGLMPYGQPRPPILGYGAGAVRPAVPTGGPPYPHAPYGAGRGNYDAFRGQGGYPGKPRNRMVRGDPRAIVEYRDLDAPDDVDFF
# B2: Histone deacetylase complex subunit SAP18 [OS = Homo sapiens] (protein, UniProt O00422 2-153, looked up)
# chain: AVESRVTQEEIKKEPEKPIDREKTCPLLLRVFTTNNGRHHRMDEFSRGNVPSSELQIYTWMDATLKELTSLVKEVYPEARKKGTHFNFAIVFTDVKRPGYRVKEIGSTMSGRKGTDDSMTLQSQKFQIGDYLDIAITPPNRAPPPSGRMRPY
# B3: transformer-2 protein homolog beta [OS = Homo sapiens] (protein, UniProt P62995 2-288, looked up)
# chain: SDSGEQNYGERESRSASRSGSAHGSGKSARHTPARSRSKEDSRRSRSKSRSRSESRSRSRRSSRRHYTRSRSRSRSHRRSRSRSYSRDYRRRHSHSHSPMSTRRRHVGNRANPDPNCCLGVFGLSLYTTERDLREVFSKYGPIADVSIVYDQQSRRSRGFAFVYFENVDDAKEAKERANGMELDGRRIRVDFSITKRPHTPTPGIYMGRPTYGSSRRRDYYDRGYDRGYDDRDYYSRSYRGGGGGGGGWRAAQDRDQIYRRRSPSPYYSRGGYRSRSRSRSYSPRRY
# B4: WD and tetratricopeptide repeats protein 1 [OS = Homo sapiens] (protein, UniProt Q8N5D0 1-677, looked up)
# chain: MAKVNITRDLIRRQIKERGALSFERRYHVTDPFIRRLGLEAELQGHSGCVNCLEWNEKGDLLASGSDDQHTIVWDPLHHKKLLSMHTGHTANIFSVKFLPHAGDRILITGAADSKVHVHDLTVKETIHMFGDHTNRVKRIATAPMWPNTFWSAAEDGLIRQYDLRENSKHSEVLIDLTEYCGQLVEAKCLTVNPQDNNCLAVGASGPFVRLYDIRMIHNHRKSMKQSPSAGVHTFCDRQKPLPDGAAQYYVAGHLPVKLPDYNNRLRVLVATYVTFSPNGTELLVNMGGEQVYLFDLTYKQRPYTFLLPRKCHSSGEVQNGKMSTNGVSNGVSNGLHLHSNGFRLPESRGHVSPQVELPPYLERVKQQANEAFACQQWTQAIQLYSKAVQRAPHNAMLYGNRAAAYMKRKWDGDHYDALRDCLKAISLNPCHLKAHFRLARCLFELKYVAEALECLDDFKGKFPEQAHSSACDALGRDITAALFSKNDGEEKKGPGGGAPVRLRSTSRKDSISEDEMVLRERSYDYQFRYCGHCNTTTDIKEANFFGSNAQYIVSGSDDGSFFIWEKETTNLVRVLQGDESIVNCLQPHPSYCFLATSGIDPVVRLWNPRPESEDLTGRVVEDMEGASQANQRRMNADPLEVMLLNMGYRITGLSSGGAGASDDEDSSEGQVQCRPS
# B5: GTPase-activating protein and VPS9 domain-containing protein 1 [OS = Homo sapiens] (protein, UniProt Q14C86 1-1478, looked up)
# chain: MVKLDIHTLAHHLKQERLYVNSEKQLIQRLNADVLKTAEKLYRTAWIAKQQRINLDRLIITSAEASPAECCQHAKILEDTQFVDGYKQLGFQETAYGEFLSRLRENPRLIASSLVAGEKLNQENTQSVIYTVFTSLYGNCIMQEDESYLLQVLRYLIEFELKESDNPRRLLRRGTCAFSILFKLFSEGLFSAKLFLTATLHEPIMQLLVEDEDHLETDPNKLIERFSPSQQEKLFGEKGSDRFRQKVQEMVESNEAKLVALVNKFIGYLKQNTYCFPHSLRWIVSQMYKTLSCVDRLEVGEVRAMCTDLLLACFICPAVVNPEQYGIISDAPINEVARFNLMQVGRLLQQLAMTGSEEGDPRTKSSLGKFDKSCVAAFLDVVIGGRAVETPPLSSVNLLEGLSRTVVYITYSQLITLVNFMKSVMSGDQLREDRMALDNLLANLPPAKPGKSSSLEMTPYNTPQLSPATTPANKKNRLPIATRSRSRTNMLMDLHMDHEGSSQETIQEVQPEEVLVISLGTGPQLTPGMMSENEVLNMQLSDGGQGDVPVDENKLHGKPDKTLRFSLCSDNLEGISEGPSNRSNSVSSLDLEGESVSELGAGPSGSNGVEALQLLEHEQATTQDNLDDKLRKFEIRDMMGLTDDRDISETVSETWSTDVLGSDFDPNIDEDRLQEIAGAAAENMLGSLLCLPGSGSVLLDPCTGSTISETTSEAWSVEVLPSDSEAPDLKQEERLQELESCSGLGSTSDDTDVREVSSRPSTPGLSVVSGISATSEDIPNKIEDLRSECSSDFGGKDSVTSPDMDEITHGAHQLTSPPSQSESLLAMFDPLSSHEGASAVVRPKVHYARPSHPPPDPPILEGAVGGNEARLPNFGSHVLTPAEMEAFKQRHSYPERLVRSRSSDIVSSVRRPMSDPSWNRRPGNEERELPPAAAIGATSLVAAPHSSSSSPSKDSSRGETEERKDSDDEKSDRNRPWWRKRFVSAMPKAPIPFRKKEKQEKDKDDLGPDRFSTLTDDPSPRLSAQAQVAEDILDKYRNAIKRTSPSDGAMANYESTGDNHDRDLSSKLLYHSDKEVMGDGESAHDSPRDEALQNISADDLPDSASQAAHPQDSAFSYRDAKKKLRLALCSADSVAFPVLTHSTRNGLPDHTDPEDNEIVCFLKVQIAEAINLQDKNLMAQLQETMRCVCRFDNRTCRKLLASIAEDYRKRAPYIAYLTRCRQGLQTTQAHLERLLQRVLRDKEVANRYFTTVCVRLLLESKEKKIREFIQDFQKLTAADDKTAQVEDFLQFLYGAMAQDVIWQNASEEQLQDAQLAIERSVMNRIFKLAFYPNQDGDILRDQVLHEHIQRLSKVVTANHRALQIPEVYLREAPWPSAQSEIRTISAYKTPRDKVQCILRMCSTIMNLLSLANEDSVPGADDFVPVLVFVLIKANPPCLLSTVQYISSFYASCLSGEESYWWMQFTAAVEFIKTIDDRK
# B6: 14-3-3 protein epsilon [OS = Homo sapiens], P62258 1-255 (protein, UniProt P62258 1-255, looked up)
# chain: MDDREDLVYQAKLAEQAERYDEMVESMKKVAGMDVELTVEERNLLSVAYKNVIGARRASWRIISSIEQKEENKGGEDKLKMIREYRQMVETELKLICCDILDVLDKHLIPAANTGESKVFYYKMKGDYHRYLAEFATGNDRKEAAENSLVAYKAASDIAMTELPPTHPIRLGLALNFSVFYYEILNSPDRACRLAKAAFDDAIAELDTLSEESYKDSTLIMQLLRDNLTLWTSDMQGDGEEQNKEALQDVEDENQ
# B7: Serine/arginine-rich splicing factor 10 [OS = Homo sapiens], O75494 1-262 (protein, UniProt O75494 1-262, looked up)
# chain: MSRYLRPPNTSLFVRNVADDTRSEDLRREFGRYGPIVDVYVPLDFYTRRPRGFAYVQFEDVRDAEDALHNLDRKWICGRQIEIQFAQGDRKTPNQMKAKEGRNVYSSSRYDDYDRYRRSRSRSYERRRSRSRSFDYNYRRSYSPRNSRPTGRPRRSRSHSDNDRFKHRNRSFSRSKSNSRSRSKSQPKKEMKAKSRSRSASHTKTRGTSKTDSKTHYKSGSRYEKESRKKEPPRSKSQSRSQSRSRSKSRSRSWTSPKSSGH
# B8: 14-3-3 protein sigma [OS = Homo sapiens], P31947 1-248 (protein, UniProt P31947 1-248, looked up)
# chain: MERASLIQKAKLAEQAERYEDMAAFMKGAVEKGEELSCEERNLLSVAYKNVVGGQRAAWRVLSSIEQKSNEEGSEEKGPEVREYREKVETELQGVCDTVLGLLDSHLIKEAGDAESRVFYLKMKGDYYRYLAEVATGDDKKRIIDSARSAYQEAMDISKKEMPPTNPIRLGLALNFSVFHYEIANSPEEAISLAKTTFDEAMADLHTLSEDSYKDSTLIMQLLRDNLTLWTADNAGEEGGEAPQEPQS
# B9: 14-3-3 protein theta [OS = Homo sapiens], P27348 1-245 (protein, UniProt P27348 1-245, looked up)
# chain: MEKTELIQKAKLAEQAERYDDMATCMKAVTEQGAELSNEERNLLSVAYKNVVGGRRSAWRVISSIEQKTDTSDKKLQLIKDYREKVESELRSICTTVLELLDKYLIANATNPESKVFYLKMKGDYFRYLAEVACGDDRKQTIDNSQGAYQEAFDISKKEMQPTHPIRLGLALNFSVFYYEILNNPELACTLAKTAFDEAIAELDTLNEDSYKDSTLIMQLLRDNLTLWTSDSAGEECDAAEGAEN
# Biological target: 14-3-3ζ nhpSer58 with a FLAG tag at its N-terminus (Homo sapiens (Human)) (UniProt P63104)
# Conditions: not given
row,Binder,FC [fold]
1,B1,0.12
2,B2,0.187
3,B3,0.194
4,B4,0.202
5,B5,0.177

# Biological target: T1, 14-3-3ζ nhpSer58 with a FLAG tag at its N-terminus (Homo sapiens (Human)), P63104
# T1 chain: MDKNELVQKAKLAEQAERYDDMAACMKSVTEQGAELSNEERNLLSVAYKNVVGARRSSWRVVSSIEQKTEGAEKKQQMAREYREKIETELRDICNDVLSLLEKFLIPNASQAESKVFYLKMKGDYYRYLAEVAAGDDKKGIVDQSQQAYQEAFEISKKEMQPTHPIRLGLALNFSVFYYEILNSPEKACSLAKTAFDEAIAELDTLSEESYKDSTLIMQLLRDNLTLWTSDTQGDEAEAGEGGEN
# Conditions: remark: other sources report otherwise
row,Binder,FC [fold]
1,B6,0.0482
2,B7,0.0496
3,B8,0.0526
4,B9,0.0473
